Experiments:
Assay in all cases: HuProt protein array, F635 z-score
[1] = target: T1, Chromobox protein homolog 1 (CBX1) (human, UniProt P83916 1-185)
T1 construct: The array carries full-length recombinant human proteins expressed in S. cerevisiae; also called Human Chromobox protein homolog 1
Text: (§1) Large scale protein arrays are versatile and sensitive platforms for antibody specificity evaluation. They can be used for the evaluation of protein binding or affinity reagents that are widely employed in research and clinical applications. The microarray used in our target identification experiment provides the largest number of unique, full-length, individually purified human proteins on a single microscope slide. This allows thousands of interactions to be profiled in a high-throughput manner. The hill-length recombinant proteins are expressed in the yeast S. cerevisiae, purified, and printed on glass slides in duplicate along with a set of control proteins (GST, BSA, histones, IgG, etc.). Such microarray is not restricted to a particular type of surface coating, although the default is glass coated with ultra-thin nitrocellulose film for the non-covalent, yet irreversible, capture of active proteins to the surface. Fourteen Protein arrays were used for the antibody cross-reactivity assay of the samples. The antibodies were probed at […] on the arrays and incubated at room temperature for 1 hour. After probing, the arrays were washed according to the protocol and probed with Alexa-647-anti-human IgG […] specific secondary antibodies under conditions optimized for signal detection. The antibody-antigen binding score was calculated for each protein represented on the array and expressed as z-scores.
(§2) Antibody samples are probed on native HuProt arrays at 1 μg/ml and incubated at room temperature for 1 hour. After probing, the arrays are washed according to the standard protocols and probed with Alexa-647-anti-human IgG Fc gamma specific secondary antibodies under conditions optimized for signal detection.
(§3) Z score is the average Z score of the duplicate spots of a given protein (each protein is printed in duplicate on a HuProt™ array). The Z score of each spot on a given array is calculated according to the equation: […]

[2] = target: T2, O-linked N-acetylglucosamine (GlcNAc) transferase (OGT) (human, UniProt O15294 2-1046)
T2 construct: The array carries full-length recombinant human proteins expressed in S. cerevisiae; also called Human OGT
T2 sequence: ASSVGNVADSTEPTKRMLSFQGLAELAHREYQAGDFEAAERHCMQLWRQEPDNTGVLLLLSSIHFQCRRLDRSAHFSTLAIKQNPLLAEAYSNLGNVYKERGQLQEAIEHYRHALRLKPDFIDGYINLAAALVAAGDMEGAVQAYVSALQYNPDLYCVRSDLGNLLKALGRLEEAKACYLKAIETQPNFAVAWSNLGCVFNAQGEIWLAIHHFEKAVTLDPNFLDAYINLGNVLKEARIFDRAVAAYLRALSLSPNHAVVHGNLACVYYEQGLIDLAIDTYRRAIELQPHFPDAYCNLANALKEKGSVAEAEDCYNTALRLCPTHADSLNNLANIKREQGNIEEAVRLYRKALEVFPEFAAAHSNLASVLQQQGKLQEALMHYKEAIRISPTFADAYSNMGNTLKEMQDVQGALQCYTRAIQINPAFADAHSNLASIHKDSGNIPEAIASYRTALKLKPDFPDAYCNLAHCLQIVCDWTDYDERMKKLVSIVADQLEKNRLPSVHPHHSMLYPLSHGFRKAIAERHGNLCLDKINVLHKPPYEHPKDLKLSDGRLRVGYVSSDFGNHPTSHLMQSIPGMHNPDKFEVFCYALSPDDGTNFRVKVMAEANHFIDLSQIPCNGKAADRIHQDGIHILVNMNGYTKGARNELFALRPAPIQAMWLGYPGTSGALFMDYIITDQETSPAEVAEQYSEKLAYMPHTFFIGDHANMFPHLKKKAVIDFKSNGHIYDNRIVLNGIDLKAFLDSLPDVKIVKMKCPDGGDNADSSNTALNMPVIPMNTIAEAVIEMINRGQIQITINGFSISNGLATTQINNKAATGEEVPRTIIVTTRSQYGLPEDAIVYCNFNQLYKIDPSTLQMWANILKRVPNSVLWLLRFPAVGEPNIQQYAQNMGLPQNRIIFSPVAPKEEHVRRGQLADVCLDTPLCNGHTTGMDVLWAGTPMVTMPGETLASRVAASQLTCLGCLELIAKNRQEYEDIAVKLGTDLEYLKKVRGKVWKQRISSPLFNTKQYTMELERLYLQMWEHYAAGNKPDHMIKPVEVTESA
Text: as §1, §2, §3

[3] = target: T3, Alpha-taxilin (TXLNA) also known as interleukin-14A (human, UniProt P40222 1-546)
T3 construct: The array carries full-length recombinant human proteins expressed in S. cerevisiae; also called IL-14A; TXLNA/IL-14A
T3 sequence (P40222 whole entry): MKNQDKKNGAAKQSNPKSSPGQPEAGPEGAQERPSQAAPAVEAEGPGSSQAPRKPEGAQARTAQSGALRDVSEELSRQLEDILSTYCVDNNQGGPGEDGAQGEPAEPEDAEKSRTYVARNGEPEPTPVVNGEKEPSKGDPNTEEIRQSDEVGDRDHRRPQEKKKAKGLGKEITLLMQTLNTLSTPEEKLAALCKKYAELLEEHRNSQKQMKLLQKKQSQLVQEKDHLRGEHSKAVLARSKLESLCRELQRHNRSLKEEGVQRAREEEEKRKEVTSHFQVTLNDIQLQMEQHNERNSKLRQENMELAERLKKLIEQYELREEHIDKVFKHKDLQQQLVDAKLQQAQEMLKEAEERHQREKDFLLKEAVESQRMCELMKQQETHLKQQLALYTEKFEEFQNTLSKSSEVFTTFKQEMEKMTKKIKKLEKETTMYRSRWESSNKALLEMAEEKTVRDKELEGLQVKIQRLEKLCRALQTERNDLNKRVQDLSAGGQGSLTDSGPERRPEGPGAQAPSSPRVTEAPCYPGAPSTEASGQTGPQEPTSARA
Text: as §1, §2, §3

[4] = target: T4, Chromobox protein homolog 5 (CBX5) (human, UniProt P45973 1-191)
T4 construct: The array carries full-length recombinant human proteins expressed in S. cerevisiae; also called Human Chromobox protein homolog 5
T4 sequence (P45973 whole entry): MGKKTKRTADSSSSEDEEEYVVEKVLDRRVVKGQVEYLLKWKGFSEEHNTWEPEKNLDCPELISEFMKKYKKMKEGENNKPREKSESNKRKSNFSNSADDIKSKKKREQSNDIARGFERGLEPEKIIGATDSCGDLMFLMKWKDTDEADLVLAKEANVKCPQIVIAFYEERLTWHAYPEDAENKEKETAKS
Text: as §1, §2, §3

[5] = target: T5, Inorganic pyrophosphatase (PPA1) (human, UniProt Q15181 2-289)
T5 construct: The array carries full-length recombinant human proteins expressed in S. cerevisiae; also called Human PPA1
T5 sequence: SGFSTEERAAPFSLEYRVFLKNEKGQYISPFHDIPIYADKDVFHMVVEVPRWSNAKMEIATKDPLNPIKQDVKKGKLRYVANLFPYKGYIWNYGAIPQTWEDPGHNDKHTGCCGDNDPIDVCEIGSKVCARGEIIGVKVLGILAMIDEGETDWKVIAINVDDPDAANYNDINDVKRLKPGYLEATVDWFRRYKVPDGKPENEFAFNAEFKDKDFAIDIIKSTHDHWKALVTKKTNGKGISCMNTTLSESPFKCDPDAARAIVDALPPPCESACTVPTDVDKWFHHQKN
Text: as §1, §2, §3

[6] = target: T6, Src homology 2 (SH2) domain containing inositol polyphosphate 5-phosphatase 1 (SHIP1) (human, UniProt Q92835 1-1189)
T6 construct: The array carries full-length recombinant human proteins expressed in S. cerevisiae, purified and printed on glass slides; also called INPP5D; INPP5D/SHIP1
T6 sequence: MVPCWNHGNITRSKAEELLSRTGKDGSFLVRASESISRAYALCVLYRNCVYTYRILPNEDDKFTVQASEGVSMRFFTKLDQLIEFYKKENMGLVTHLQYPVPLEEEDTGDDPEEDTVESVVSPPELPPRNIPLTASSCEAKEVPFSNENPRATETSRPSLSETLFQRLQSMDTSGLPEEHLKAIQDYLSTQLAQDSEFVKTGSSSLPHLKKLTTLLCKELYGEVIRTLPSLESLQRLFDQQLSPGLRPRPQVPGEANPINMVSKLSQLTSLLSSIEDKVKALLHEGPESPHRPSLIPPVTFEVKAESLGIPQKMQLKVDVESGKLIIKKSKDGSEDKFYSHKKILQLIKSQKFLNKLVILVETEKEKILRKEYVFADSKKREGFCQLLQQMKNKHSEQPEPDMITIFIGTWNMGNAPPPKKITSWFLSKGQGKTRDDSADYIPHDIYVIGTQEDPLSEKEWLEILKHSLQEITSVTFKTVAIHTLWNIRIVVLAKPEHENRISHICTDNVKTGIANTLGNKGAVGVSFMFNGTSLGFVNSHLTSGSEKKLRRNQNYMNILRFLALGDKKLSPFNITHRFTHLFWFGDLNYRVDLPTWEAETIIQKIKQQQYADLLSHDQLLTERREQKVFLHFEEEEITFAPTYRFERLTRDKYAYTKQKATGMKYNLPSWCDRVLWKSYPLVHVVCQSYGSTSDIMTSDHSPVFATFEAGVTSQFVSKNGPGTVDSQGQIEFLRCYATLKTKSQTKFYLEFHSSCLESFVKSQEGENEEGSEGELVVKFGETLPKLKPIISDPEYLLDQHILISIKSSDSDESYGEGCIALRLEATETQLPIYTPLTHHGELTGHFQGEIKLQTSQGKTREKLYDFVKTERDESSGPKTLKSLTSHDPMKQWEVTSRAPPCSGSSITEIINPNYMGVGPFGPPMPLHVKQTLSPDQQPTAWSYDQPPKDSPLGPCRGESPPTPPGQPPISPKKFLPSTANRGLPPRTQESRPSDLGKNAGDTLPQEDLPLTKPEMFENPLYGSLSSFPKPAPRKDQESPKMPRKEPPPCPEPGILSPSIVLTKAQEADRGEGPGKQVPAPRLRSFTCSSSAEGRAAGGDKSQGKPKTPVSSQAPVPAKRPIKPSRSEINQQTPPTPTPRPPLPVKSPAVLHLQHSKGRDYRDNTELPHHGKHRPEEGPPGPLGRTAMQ
Text: as §1, §2, §3

[7] = target: T7, Melanoma-associated antigen 3 (MAGE-A3) (human, UniProt P43357 1-314)
T7 construct: The array carries full-length recombinant human proteins expressed in S. cerevisiae; also called Human MAGE-A3
T7 sequence (P43357 whole entry): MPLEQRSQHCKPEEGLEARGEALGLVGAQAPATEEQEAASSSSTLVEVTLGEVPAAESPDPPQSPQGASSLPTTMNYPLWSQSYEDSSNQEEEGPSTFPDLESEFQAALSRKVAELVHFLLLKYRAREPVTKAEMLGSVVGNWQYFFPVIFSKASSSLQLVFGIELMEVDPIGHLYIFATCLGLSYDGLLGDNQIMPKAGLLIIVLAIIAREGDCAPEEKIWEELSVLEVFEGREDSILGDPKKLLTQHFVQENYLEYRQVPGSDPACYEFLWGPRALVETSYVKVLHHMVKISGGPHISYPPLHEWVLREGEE
Text: as §1, §2, §3

[8] = target: T8, Cancer/testis antigen 1 (CTAG1A) (human, UniProt P78358 1-180)
T8 construct: The array carries full-length recombinant human proteins expressed in S. cerevisiae; also called NY-ESO-1; Cancer/Testis Antigen 1A
T8 sequence (P78358 whole entry): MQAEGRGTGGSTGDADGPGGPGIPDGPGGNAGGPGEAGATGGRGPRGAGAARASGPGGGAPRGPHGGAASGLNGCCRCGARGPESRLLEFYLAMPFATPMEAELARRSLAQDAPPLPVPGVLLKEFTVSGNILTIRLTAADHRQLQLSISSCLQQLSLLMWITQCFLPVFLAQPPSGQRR
Text: as §1, §2, §3

Measured: binding result

T1 sequence (P83916 whole entry): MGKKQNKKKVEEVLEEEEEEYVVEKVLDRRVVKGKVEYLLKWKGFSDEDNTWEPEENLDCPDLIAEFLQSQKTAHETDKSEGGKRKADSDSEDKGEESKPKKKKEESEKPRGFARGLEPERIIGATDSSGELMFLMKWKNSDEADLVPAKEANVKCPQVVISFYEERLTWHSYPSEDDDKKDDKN

B1: TMEL1006 (antibody, V domains shown)
VH: VVQLVESGGGLVQPGGSLRLSCAASGLTFRNYAMSWVRQAPGKGLEWVSAISGSGGRTHYADSVKGRFTISRDNSKNTLFLQMNSLRAEDTAVYYCAKEIGKYGTPTLFQHWGQGTLVTVSS
VL: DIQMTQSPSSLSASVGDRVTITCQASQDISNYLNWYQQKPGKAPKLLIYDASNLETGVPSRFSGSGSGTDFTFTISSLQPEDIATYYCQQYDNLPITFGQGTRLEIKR
notes: It was detected with an anti-human IgG Fc gamma secondary antibody
not listed: [7] | [8]
no binding (tested: 1 µg/ml): all other assays above

B2: TMEL1003 (antibody, V domains shown)
VH: AVQLVQSGAEVKKPGESLRISCKGSGYSFTSYWISWVRQMPGKGLEWMGRIDPSDSYTNYSPSFQGHVTISADKSISTAYLQWSSLKTSDTAMYYCARPLQTYSIASVGHWGQGTLVTVSS
VL: ASALTQPASVSGSPGQSITISCTGTSSDVGSYNLVSWYQQHPGKAPKLMIYEGSKRPSGVSNRFSGSKSGNTASLTISGLQAEDEADYYCCSYAGSSTFAVFGGGTKLTVLG
notes: the heavy entry continues into what looks like a non-IgG (IgM-like) CH1; It was detected with an anti-human IgG Fc gamma secondary antibody
no binding (tested: 1 µg/ml): [2] | [7] | [5] | [8] | [6]

B3: TMEL1001 (antibody, V domains shown)
VH: EVQLVESGGGLVKPGGSLRLSCAASGFTFRSYSMNWVRQAPGKGLEWVSSISSSGNYIYYADSVKGRFTLSRDNAKNSLYLQMNSLRAEDTAVYYCARGGGTSWSHYWGQGTLVTVSS
VL: QFMLTQPHSVSESPGKTVTISCTRSSGSIASNYVQWYQQRPGSAPTTVIYEDNERPSGVPDRFSGSIDSSSNSASLTISGLKTEDEADYYCQSYDSNNRWVFGGGTKLTVLG
notes: as for B1
not listed: [6]
no binding (tested: 1 µg/ml): all other assays above

Reference: patent US20220031841A1 (ABSCI, published 2022)
